For 54 substances, amyloid nucleation score results are on record in the supplement of paper PMC12042874.

± gives the uncertainty stated by the source.

The nature of the data set: amyloid nucleation score (Sup35N fusion, yeast selection) (log enrichment); library NNK3; higher = more nucleation; inactive = no reads after selection. A digest of the protocol:
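The nucleation score is a DiMSum log enrichment of output over input reads, centred on the mode score of non-aggregating sequences. Sequences under 100 input reads were excluded, and reads came from Illumina sequencing of plasmid inserts. Psi-negative yeast expressing Sup35N fused to peptides of 20 random codons were induced with 100 μM copper sulfate for 24 hours and grown 7 days at 30°C on medium lacking adenine and uracil. Random libraries had three technical output replicates.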
On to VLLFYLKVTRASTVGVLSSS, for which the amyloid nucleation score entry was “inactive”.
Take VLLGTSECHSHKILQGKSAV: the amyloid nucleation score entry was “inactive”.
Turning to VLLKALVIFDY, the amyloid nucleation score result was “inactive”.
With VLNSRTTPFI, the amyloid nucleation score entry is “inactive”.
In the case of VLRETLR, the amyloid nucleation score result is “inactive”.
Then VLRKLYLSPDSGVNYCGDPV, with “inactive”; and VLSRGDMATFTTVMMRRDAH, with “inactive”.
Consider VLVAHMRGEPGVANEWPLFQ, for which the amyloid nucleation score result is “inactive”.
VLVCTLVTSLTDAKFRKYFS showed an amyloid nucleation score of 0.813 ± 0.2.
Regarding VLVEVEIYLILFIVYAW, the amyloid nucleation score entry was “inactive”.
On to VLVGDDCDRTVANVQ, for which the amyloid nucleation score result is “inactive”.
For VLVNHGFYW, the amyloid nucleation score result was “inactive”.
Then VLYVIRNYSGDG, with 1.62 ± 0.096; and VMCLRRMSFQCMQSQMEALA, with “inactive”.
The value for VMCVFLLYI was 1.08 ± 0.11; that for VMFLFGYNKVFKLSICWIGS was “inactive”; that for VMLCHFDMYF was 1.45 ± 0.092.
In turn, VMMYFQFMPLKPSRD registered an amyloid nucleation score of 1.25 ± 0.12.
As for VMTIGTRV, the amyloid nucleation score result was “inactive”.
As for VMWEPFAYLFISSWRYVSLK, the amyloid nucleation score result was “inactive”.
Then VNGTLGFIGRETLYGTTRLT, with “inactive”.
The value for VNHVIQNLVSNRSTWGICCT was “inactive”.
Then VNIAETFSRHDPSHLWSYKS, with “inactive”.
VNIWLPKTPLQLKLNLPSSM gave an amyloid nucleation score of -0.829 ± 1.1.
VNKNVMWHDNNKFFHPFRAI displayed an amyloid nucleation score of 1.6 ± 0.082.
As for VNLHLTVEQLSMLYRTNANV, the amyloid nucleation score is 1.07 ± 0.14.
For the substance VNNKHVVWCSVHGGSSR, the amyloid nucleation score result is “inactive”.
Regarding VNRKLWGT, the amyloid nucleation score result is “inactive”.
Then VNVMWKPLGLHIVPMFAFGK, with 1.13 ± 0.16; and VNVNSKYNVFLLMCRGVEVI, with “inactive”; and VPDRCLD, with “inactive”.
The value for VPEVG was “inactive”.
For the substance VPGLHLSNPTAELDMQI, the amyloid nucleation score entry was “inactive”.
As for VPGSSNVTCLYEGLSSYNTR, the amyloid nucleation score result is “inactive”.
Then VPQNVGVLWSRRQEAVVLVS, with “inactive”.
On to VQSTVVQVGDWY, for which the amyloid nucleation score entry is “inactive”.
As for VQTWWLNMCLLPRKSTYTHL, the amyloid nucleation score entry was “inactive”.
For VQWAEVAEMKGWGVANAWW, the amyloid nucleation score result is “inactive”.
For VRGQFSSSVLGRCLGWAWTR, the amyloid nucleation score result is “inactive”.
Then VRHGSMTDCYFLHTLDRREC, with “inactive”.
Take VRISHYA: the amyloid nucleation score entry was “inactive”.
With VRIWLNVYGVVSLGGRRLLV, the amyloid nucleation score result is “inactive”.
For the substance VRKPECSVVWVNQCWVQPPY, the amyloid nucleation score turned out to be 2.15 ± 0.062.
On to VRLVAMCWGHLDKNRALRRG, for which the amyloid nucleation score result is “inactive”.
VRNVKSNANCCFN: the amyloid nucleation score result is “inactive”.
Then VRQKALRNPQL, with “inactive”; and VRVMNGTRTSCLVR, with -0.834 ± 1; and VRVSLDRTGYKSSCHVVSRG, with “inactive”.
For the substance VRVVVISPGRSCRVNPSDSP, the amyloid nucleation score entry was “inactive”.
The value for VRWYCS was “inactive”; that for VRYRVIHMDTFVS was 0.933 ± 0.16.
As for VSCDEMHKINFYLKANVVLV, the amyloid nucleation score result was “inactive”.
Regarding VSFMFFACDTFFSHAVIRTR, the amyloid nucleation score entry is “inactive”.
In the case of VSFRYAYYWFCRTMMTAAKR, the amyloid nucleation score entry is “inactive”.
